The record followed here is publication PMC5607099 (Molecular microbiology, 2017).

Ends that are not written are not given here. * marks the point of attachment. Biotin = O=C1N[C@H]2[C@H](CS[C@H]2CCCCC(=O)*)N1

Data set [1] concerns the target T1, His-tagged TamA (purified recombinant) (E. coli, UniProt P0ADE4 22-577).
T1 sequence (looked up): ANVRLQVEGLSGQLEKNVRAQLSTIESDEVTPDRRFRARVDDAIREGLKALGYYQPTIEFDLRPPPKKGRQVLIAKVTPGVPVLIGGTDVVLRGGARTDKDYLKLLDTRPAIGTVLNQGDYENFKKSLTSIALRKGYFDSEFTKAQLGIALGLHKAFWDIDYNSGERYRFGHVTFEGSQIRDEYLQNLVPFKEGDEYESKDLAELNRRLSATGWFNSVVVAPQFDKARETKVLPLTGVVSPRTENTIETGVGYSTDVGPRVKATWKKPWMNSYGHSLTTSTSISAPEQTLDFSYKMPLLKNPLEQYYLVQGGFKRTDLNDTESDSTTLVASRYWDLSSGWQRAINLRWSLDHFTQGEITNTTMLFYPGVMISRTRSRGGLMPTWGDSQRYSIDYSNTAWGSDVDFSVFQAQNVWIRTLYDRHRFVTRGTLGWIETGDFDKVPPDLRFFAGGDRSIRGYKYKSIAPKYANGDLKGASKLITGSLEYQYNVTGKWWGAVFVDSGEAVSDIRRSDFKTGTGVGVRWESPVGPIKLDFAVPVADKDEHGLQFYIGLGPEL
Nature of the data set: peptide or protein array.

For data set [2], the target named is His-tagged BamA (purified recombinant) (E. coli, UniProt P0A940 21-810). Nature of the data set: peptide or protein array.
Data set [3] deals with the molecule itself. The data set can be described thus: semi-native SDS-PAGE.
Data set [4] addresses T1, His-tagged TamA (purified recombinant). Nature of the data set: cross-linking.

B1: FimD peptide 6 (β-strand 6), on the array (peptide)
peptide: FDGINFRGAQLASDDNMLSA
For the molecule B1, the binding result in data set [1] was “binds”.

B2: FimD peptide 1 (β-strand 1) (peptide)
peptide: INAGLLNYNFSGNSVQNRSA
In the case of B2, in data set [2], the binding result is on record as “binds”.

B3: FimD peptide 2 (β-strand 2) (peptide)
peptide: GGNSHYAYLNLQSGLNIGAA
B3: in data set [2], the binding result is reported as “binds”.

B4: His-tagged OmpF (natural protein, UniProt P02931 23-362, looked up)
chain: AEIYNKDGNKVDLYGKAVGLHYFSKGNGENSYGGNGDMTYARLGFKGETQINSDLTGYGQWEYNFQGNNSEGADAQTGNKTRLAFAGLKYADVGSFDYGRNYGVVYDALGYTDMLPEFGGDTAYSDDFFVGRVGGVATYRNSNFFGLVDGLNFAVQYLGKNERDTARRSNGDGVGGSISYEYEGFGIVGAYGAADRTNLQEAQPLGNGKKAEQWATGLKYDANNIYLAANYGETRNATPITNKFTNTSGFANKTQDVLLVAQYQFDFGLRPSIAYTKSKAKDVEGIGDVDLVNYFEVGATYYFNKNMSTYVDYIINQIDSDNKLGVGSDDTVAVGIVYQF
By stoichiometry N is commonly meant the number of molecules, sites or subunits per partner or assembly. B4: in data set [3], the “stoichiometry N” value was found to be 3.

B5: Biotin-FDGINFRGAQLASDDNMLK (FimD peptide 6 with N-terminal biotin and C-terminal lysine) (peptide)
peptide: Biotin-FDGINFRGAQLASDDNMLK
For B5, the binding result in data set [4] is “binds”.

B6: FimD peptide 23 (β-strand 23) (peptide)
peptide: GGYGNANIGYSHSDDIKQSA
Consider B6, for which, in data set [1], the binding result is reported as “binds”.
